Columns and labels:
[1] = biological target: Mlh1 (WT, FLAG);Pms1 (WT) (Saccharomyces cerevisiae (expressed in …, UniProt P38920;P14242 1-769;1-873, |)); test: filter binding; no nucleotide; 2 mM Mg2+; Filter binding: 20 mM Tris-HCl pH 7.5, 20 mM NaCl (25 mM in legends), 0.01 mM EDTA, 2 mM MgCl2, 40 ug/ml BSA, 0.1 mM DTT, 15 nM DNA, +/-1 mM ATP, 30 C, 10 min; conditions: protein: recombinant;recombinant; tags: FLAG inserted at position 499;; copies: 1;1; label: 5'-32P on AO3142; blunt
[2] = biological target: Mlh1 del348-373 (FLAG);Pms1 del584-634 (DLDnull subunit) (Saccharomyces cerevisiae (expressed in …, UniProt P38920;P14242 1-769;1-873, del348-373|del584-634)); test: filter binding; no nucleotide; 2 mM Mg2+; similar to WT; Filter binding: 20 mM Tris-HCl pH 7.5, 20 mM NaCl (25 mM in legends), 0.01 mM EDTA, 2 mM MgCl2, 40 ug/ml BSA, 0.1 mM DTT, 15 nM DNA, +/-1 mM ATP, 30 C, 10 min; conditions: protein: recombinant;recombinant; tags: FLAG inserted at position equivalent to 499;; copies: 1;1; label: 5'-32P on AO3142; blunt
Mlh1 del348-373 (FLAG);Pms1 del584-634 (DLDnull subunit) (Saccharomyces cerevisiae, sequence (P38920 other isoform, or with tags, fused parts or gaps del348-373|del584-634, chain 1 of 2): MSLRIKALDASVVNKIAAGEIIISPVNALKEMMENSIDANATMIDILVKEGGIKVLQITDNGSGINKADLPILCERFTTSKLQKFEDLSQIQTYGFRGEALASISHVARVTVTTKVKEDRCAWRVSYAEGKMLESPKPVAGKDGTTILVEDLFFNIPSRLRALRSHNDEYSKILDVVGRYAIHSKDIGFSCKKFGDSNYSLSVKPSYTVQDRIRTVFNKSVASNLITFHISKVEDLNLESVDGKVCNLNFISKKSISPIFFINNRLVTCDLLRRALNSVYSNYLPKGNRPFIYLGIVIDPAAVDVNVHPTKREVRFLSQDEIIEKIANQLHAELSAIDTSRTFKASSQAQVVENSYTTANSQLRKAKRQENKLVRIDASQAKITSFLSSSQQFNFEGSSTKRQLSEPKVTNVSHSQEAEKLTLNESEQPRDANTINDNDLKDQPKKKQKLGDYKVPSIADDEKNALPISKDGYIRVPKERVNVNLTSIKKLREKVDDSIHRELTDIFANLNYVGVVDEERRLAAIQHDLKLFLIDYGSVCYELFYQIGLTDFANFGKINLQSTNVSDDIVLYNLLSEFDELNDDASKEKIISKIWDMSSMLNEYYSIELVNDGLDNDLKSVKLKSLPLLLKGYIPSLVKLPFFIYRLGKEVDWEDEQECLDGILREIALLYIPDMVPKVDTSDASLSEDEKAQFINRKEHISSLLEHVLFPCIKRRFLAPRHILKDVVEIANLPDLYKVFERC
Mlh1 del348-373 (FLAG);Pms1 del584-634 (DLDnull subunit) (Saccharomyces cerevisiae, sequence (P14242 other isoform, or with tags, fused parts or gaps del348-373|del584-634, chain 2 of 2): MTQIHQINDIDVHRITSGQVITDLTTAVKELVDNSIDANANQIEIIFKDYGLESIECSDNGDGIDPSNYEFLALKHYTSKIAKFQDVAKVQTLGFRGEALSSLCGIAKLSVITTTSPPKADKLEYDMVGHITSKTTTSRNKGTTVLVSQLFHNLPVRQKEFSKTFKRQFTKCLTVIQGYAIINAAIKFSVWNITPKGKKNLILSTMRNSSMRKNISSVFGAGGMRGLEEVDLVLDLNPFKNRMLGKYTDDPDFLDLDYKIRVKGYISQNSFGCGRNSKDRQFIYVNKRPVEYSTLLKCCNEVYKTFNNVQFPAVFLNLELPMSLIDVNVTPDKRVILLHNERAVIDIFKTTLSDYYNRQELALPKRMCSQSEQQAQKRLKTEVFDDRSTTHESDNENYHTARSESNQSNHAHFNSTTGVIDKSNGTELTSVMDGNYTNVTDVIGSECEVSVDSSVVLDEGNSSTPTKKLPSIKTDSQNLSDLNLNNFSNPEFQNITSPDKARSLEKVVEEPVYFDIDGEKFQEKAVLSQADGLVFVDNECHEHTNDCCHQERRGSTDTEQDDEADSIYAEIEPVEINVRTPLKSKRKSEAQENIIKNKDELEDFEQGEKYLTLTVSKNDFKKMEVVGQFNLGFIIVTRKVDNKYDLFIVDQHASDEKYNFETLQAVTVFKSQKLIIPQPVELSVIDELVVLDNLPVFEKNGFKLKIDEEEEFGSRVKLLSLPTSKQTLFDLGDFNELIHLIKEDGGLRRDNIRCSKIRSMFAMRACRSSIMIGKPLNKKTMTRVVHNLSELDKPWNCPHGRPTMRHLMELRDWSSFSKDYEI

[3] = biological target: Mlh1 del348-373 (FLAG);Pms1 del438-487 (DLDMMR subunit) (Saccharomyces cerevisiae (expressed in …, UniProt P38920;P14242 1-769;1-873, del348-373|del438-487)); test: as above; conditions: protein: recombinant;recombinant; tags: FLAG inserted at position equivalent to 499;; copies: 1;1; label: 5'-32P on AO3142; blunt
Mlh1 del348-373 (FLAG);Pms1 del438-487 (DLDMMR subunit) (Saccharomyces cerevisiae, sequence (P38920 other isoform, or with tags, fused parts or gaps del348-373|del438-487, chain 1 of 2): as the sequence (P38920 other isoform, or with tags, fused parts or gaps del348-373|del584-634, chain 1 of 2) above
Mlh1 del348-373 (FLAG);Pms1 del438-487 (DLDMMR subunit) (Saccharomyces cerevisiae, sequence (P14242 other isoform, or with tags, fused parts or gaps del348-373|del438-487, chain 2 of 2): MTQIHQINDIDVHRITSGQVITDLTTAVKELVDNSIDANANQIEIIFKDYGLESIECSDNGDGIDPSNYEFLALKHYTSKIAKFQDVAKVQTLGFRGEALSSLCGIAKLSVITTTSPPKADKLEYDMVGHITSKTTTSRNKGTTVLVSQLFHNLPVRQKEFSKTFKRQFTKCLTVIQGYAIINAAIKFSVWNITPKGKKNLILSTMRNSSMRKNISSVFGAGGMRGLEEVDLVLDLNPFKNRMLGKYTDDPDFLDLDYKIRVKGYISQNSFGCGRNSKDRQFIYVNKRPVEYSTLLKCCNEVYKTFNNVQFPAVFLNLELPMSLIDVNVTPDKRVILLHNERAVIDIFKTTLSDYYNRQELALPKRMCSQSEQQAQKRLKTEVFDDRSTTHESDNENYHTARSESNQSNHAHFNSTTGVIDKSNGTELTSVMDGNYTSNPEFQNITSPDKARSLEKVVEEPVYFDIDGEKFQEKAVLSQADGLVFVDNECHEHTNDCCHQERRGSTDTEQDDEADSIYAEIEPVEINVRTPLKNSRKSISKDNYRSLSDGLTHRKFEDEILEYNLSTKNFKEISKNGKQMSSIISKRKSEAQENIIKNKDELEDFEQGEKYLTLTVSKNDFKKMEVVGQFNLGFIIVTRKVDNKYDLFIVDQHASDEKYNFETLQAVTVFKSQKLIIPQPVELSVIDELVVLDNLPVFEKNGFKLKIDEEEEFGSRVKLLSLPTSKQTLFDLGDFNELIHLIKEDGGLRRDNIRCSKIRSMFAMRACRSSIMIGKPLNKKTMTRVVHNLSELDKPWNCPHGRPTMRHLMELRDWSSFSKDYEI

Measured: binding result

Mlh1 (WT, FLAG);Pms1 (WT) (Saccharomyces cerevisiae, sequence (P38920 whole entry, chain 1 of 2): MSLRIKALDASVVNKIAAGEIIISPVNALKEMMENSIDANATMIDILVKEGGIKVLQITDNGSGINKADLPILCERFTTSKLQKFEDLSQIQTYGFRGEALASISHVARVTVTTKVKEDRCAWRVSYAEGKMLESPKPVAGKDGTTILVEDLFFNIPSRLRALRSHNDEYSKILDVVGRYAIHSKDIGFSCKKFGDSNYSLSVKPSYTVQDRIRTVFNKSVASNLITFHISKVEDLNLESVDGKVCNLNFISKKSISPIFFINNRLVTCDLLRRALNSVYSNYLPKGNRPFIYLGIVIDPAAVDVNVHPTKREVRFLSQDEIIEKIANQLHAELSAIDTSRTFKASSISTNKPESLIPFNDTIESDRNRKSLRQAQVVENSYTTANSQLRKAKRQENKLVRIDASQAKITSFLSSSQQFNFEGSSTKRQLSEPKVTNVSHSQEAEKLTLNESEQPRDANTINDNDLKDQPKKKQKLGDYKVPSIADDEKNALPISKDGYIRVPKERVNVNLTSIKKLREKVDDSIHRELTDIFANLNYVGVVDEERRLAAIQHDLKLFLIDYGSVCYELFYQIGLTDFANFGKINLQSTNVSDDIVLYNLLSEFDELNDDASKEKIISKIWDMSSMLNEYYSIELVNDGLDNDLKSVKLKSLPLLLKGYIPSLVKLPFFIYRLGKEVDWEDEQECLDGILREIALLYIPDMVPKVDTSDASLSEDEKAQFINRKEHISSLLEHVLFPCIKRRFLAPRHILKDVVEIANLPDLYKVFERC
Mlh1 (WT, FLAG);Pms1 (WT) (Saccharomyces cerevisiae, sequence (P14242 whole entry, chain 2 of 2): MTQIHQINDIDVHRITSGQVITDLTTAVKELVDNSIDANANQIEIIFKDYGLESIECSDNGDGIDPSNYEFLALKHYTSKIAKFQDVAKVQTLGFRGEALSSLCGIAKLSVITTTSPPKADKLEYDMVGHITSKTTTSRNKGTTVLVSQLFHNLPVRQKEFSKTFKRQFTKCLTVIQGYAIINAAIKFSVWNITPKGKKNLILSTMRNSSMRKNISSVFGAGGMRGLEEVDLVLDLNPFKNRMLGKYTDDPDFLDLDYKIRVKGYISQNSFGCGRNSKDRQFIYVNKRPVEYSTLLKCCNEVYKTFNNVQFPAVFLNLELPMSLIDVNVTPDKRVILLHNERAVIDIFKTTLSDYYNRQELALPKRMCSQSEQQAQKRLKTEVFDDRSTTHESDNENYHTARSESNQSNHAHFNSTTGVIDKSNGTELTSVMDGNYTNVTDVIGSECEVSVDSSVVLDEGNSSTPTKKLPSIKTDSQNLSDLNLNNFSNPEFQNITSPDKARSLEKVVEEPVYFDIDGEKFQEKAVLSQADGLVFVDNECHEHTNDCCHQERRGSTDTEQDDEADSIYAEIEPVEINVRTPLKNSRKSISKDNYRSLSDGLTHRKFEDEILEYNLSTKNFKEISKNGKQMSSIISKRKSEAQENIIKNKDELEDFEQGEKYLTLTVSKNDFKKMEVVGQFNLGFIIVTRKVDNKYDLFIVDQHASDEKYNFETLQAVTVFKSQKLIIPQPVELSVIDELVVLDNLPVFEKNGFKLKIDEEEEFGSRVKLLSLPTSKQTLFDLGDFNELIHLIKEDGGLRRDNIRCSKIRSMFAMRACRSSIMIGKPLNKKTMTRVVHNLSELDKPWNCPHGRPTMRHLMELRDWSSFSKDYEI

B1: 49-bp homoduplex AO3142/AO3144 (dsDNA)
DNA 1: GGGTCAACGTGGGCAAAGATGTCCTAGCAAGTCAGAATTCGGTAGCGTG
DNA 2: CACGCTACCGAATTCTGACTTGCTAGGACATCTTTGCCCACGTTGACCC
binds: [1] | [2] | [3]
